This is an account of results in patent US20230212587A1, “Mutant Hydroxyphenylpyruvate Dioxygenase Polypeptide, Encoding Gene Thereof and Use Therefor” (Beijing Dabeinong Biotechnology Co., Ltd., priority 2019, published 2023).

The test relates to Arabidopsis thaliana T1 plants. Kind of test: Topramezone tolerance of transgenic Arabidopsis thaliana T1 plants (pesticide damage grade by bleached leaf area, score, resistance evaluation). The format is in vivo. Also on record: score: scale not given here. The conditions noted are these: HPPD from Avena sativa source; for Grade 0 / Grade 1 / Grade 2 / Grade 3: number of plants. The gist of the method: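 Eighteen days after sowing, wild-type and HPPD-transgenic T1 Arabidopsis receive a topramezone spray at 1×, 2× or 4× field rate (25–100 g ai/ha) or water. Seven days later each plant is graded by its proportion of bleached leaf area.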

B1: F372T (protein, listed as Avena sativa)
chain: MPPTPATATGAAAAAVTPEHAARSFPRVVRVNPRSDRFPVLSFHHVELWCADAASAAGRFSFALGAPLAARSDLSTGNSAHASLLLRSGALAFLFTAPYAPPPQEAATAAATASIPSFSADAARTFAAAHGLAVRSVGVRVADAAEAFRVSVAGGARPAFAPADLGHGFGLAEVELYGDVVLRFVSYPDETDLPFLPGFERVSSPGAVDYGLTRFDHVVGNVPEMAPVIDYMKGFLGFHEFAEFTAEDVGTTESGLNSVVLANNSEAVLLPLNEPVHGTKRRSQIQTYLEYHGGPGVQHIALASNDVLRTLREMRARTPMGGFEFMAPPQAKYYEGVRRIAGDVLSEEQIKECQELGVLVDRDDQGVLLQITTKPVGDRPTFFLEMIQRIGCMEKDEVGQEYQKGGCGGFGKGNFSELFKSIEDYEKSLEVKQSVVAQKS
modifications: AsHPPD Amido Acid Sequence
Take B1: where the note is “topramezone 25 g ai/ha (1x)”, the “Resistance Grade” value is reported as “Highly resistant”, the score came out at 0, the “Grade 0” value stood at 20 and the “Grade 1” value is recorded as 0. Where the note is “topramezone 25 g ai/ha (1x)”, the “Grade 2” value turned out to be 0 and the “Grade 3” value was 0. In addition, for the setting “topramezone 50 g ai/ha (2x)”, the “Resistance Grade” value is listed as “Highly resistant”, the score is recorded as 3, the “Grade 0” value is reported as 18 and the “Grade 1” value worked out at 2. Moreover, under “topramezone 50 g ai/ha (2x)”, the “Grade 2” value is on record as 0 and the “Grade 3” value amounted to 0. Moreover, where the note is “topramezone 100 g ai/ha (4x)”, the “Resistance Grade” value is on record as “Moderately resistant”, the score was found to be 17, the “Grade 0” value amounted to 10 and the “Grade 1” value turned out to be 10. Moreover, for the setting “topramezone 100 g ai/ha (4x)”, the “Grade 2” value came out at 0 and the “Grade 3” value worked out at 0.

B2: F372E (protein, listed as Avena sativa)
chain: MPPTPATATGAAAAAVTPEHAARSFPRVVRVNPRSDRFPVLSFHHVELWCADAASAAGRFSFALGAPLAARSDLSTGNSAHASLLLRSGALAFLFTAPYAPPPQEAATAAATASIPSFSADAARTFAAAHGLAVRSVGVRVADAAEAFRVSVAGGARPAFAPADLGHGFGLAEVELYGDVVLRFVSYPDETDLPFLPGFERVSSPGAVDYGLTRFDHVVGNVPEMAPVIDYMKGFLGFHEFAEFTAEDVGTTESGLNSVVLANNSEAVLLPLNEPVHGTKRRSQIQTYLEYHGGPGVQHIALASNDVLRTLREMRARTPMGGFEFMAPPQAKYYEGVRRIAGDVLSEEQIKECQELGVLVDRDDQGVLLQIETKPVGDRPTFFLEMIQRIGCMEKDEVGQEYQKGGCGGFGKGNFSELFKSIEDYEKSLEVKQSVVAQKS
modifications: AsHPPD Amido Acid Sequence
B2: where the note is “topramezone 25 g ai/ha (1x)”, the “Resistance Grade” value was “Poorly resistant”, the score worked out at 60, the “Grade 0” value is 0 and the “Grade 1” value was found to be 8. Besides, under “topramezone 25 g ai/ha (1x)”, the “Grade 2” value is 8 and the “Grade 3” value worked out at 4. In addition, under “topramezone 50 g ai/ha (2x)”, the “Resistance Grade” value is reported as “Poorly resistant”, the score is 63, the “Grade 0” value is recorded as 0 and the “Grade 1” value is given as 6. Moreover, under “topramezone 50 g ai/ha (2x)”, the “Grade 2” value is 10 and the “Grade 3” value amounted to 4. Further, for the setting “topramezone 100 g ai/ha (4x)”, the “Resistance Grade” value was “Non-resistant”, the score is 97, the “Grade 0” value worked out at 0 and the “Grade 1” value was 0. Besides, for the setting “topramezone 100 g ai/ha (4x)”, the “Grade 2” value came out at 2 and the “Grade 3” value worked out at 18.

B3: F372M (protein, listed as Avena sativa)
chain: MPPTPATATGAAAAAVTPEHAARSFPRVVRVNPRSDRFPVLSFHHVELWCADAASAAGRFSFALGAPLAARSDLSTGNSAHASLLLRSGALAFLFTAPYAPPPQEAATAAATASIPSFSADAARTFAAAHGLAVRSVGVRVADAAEAFRVSVAGGARPAFAPADLGHGFGLAEVELYGDVVLRFVSYPDETDLPFLPGFERVSSPGAVDYGLTRFDHVVGNVPEMAPVIDYMKGFLGFHEFAEFTAEDVGTTESGLNSVVLANNSEAVLLPLNEPVHGTKRRSQIQTYLEYHGGPGVQHIALASNDVLRTLREMRARTPMGGFEFMAPPQAKYYEGVRRIAGDVLSEEQIKECQELGVLVDRDDQGVLLQIMTKPVGDRPTFFLEMIQRIGCMEKDEVGQEYQKGGCGGFGKGNFSELFKSIEDYEKSLEVKQSVVAQKS
modifications: AsHPPD Amido Acid Sequence
For the molecule B3, where the note is “topramezone 25 g ai/ha (1x)”, the “Resistance Grade” value is “Highly resistant”, the score turned out to be 0, the “Grade 0” value is given as 20 and the “Grade 1” value is recorded as 0. In addition, for the setting “topramezone 25 g ai/ha (1x)”, the “Grade 2” value was found to be 0 and the “Grade 3” value turned out to be 0. Besides, under “topramezone 50 g ai/ha (2x)”, the “Resistance Grade” value is on record as “Moderately resistant”, the score stood at 20, the “Grade 0” value stood at 8 and the “Grade 1” value amounted to 12. In addition, under “topramezone 50 g ai/ha (2x)”, the “Grade 2” value is recorded as 0 and the “Grade 3” value came out at 0. Where the note is “topramezone 100 g ai/ha (4x)”, the “Resistance Grade” value is “Poorly resistant”, the score is given as 50, the “Grade 0” value was found to be 2 and the “Grade 1” value is listed as 6. Further, where the note is “topramezone 100 g ai/ha (4x)”, the “Grade 2” value is listed as 12 and the “Grade 3” value is given as 0.

B4: F372C (protein, listed as Avena sativa)
chain: MPPTPATATGAAAAAVTPEHAARSFPRVVRVNPRSDRFPVLSFHHVELWCADAASAAGRFSFALGAPLAARSDLSTGNSAHASLLLRSGALAFLFTAPYAPPPQEAATAAATASIPSFSADAARTFAAAHGLAVRSVGVRVADAAEAFRVSVAGGARPAFAPADLGHGFGLAEVELYGDVVLRFVSYPDETDLPFLPGFERVSSPGAVDYGLTRFDHVVGNVPEMAPVIDYMKGFLGFHEFAEFTAEDVGTTESGLNSVVLANNSEAVLLPLNEPVHGTKRRSQIQTYLEYHGGPGVQHIALASNDVLRTLREMRARTPMGGFEFMAPPQAKYYEGVRRIAGDVLSEEQIKECQELGVLVDRDDQGVLLQICTKPVGDRPTFFLEMIQRIGCMEKDEVGQEYQKGGCGGFGKGNFSELFKSIEDYEKSLEVKQSVVAQKS
modifications: AsHPPD Amido Acid Sequence
Turning to B4, for the setting “topramezone 25 g ai/ha (1x)”, the “Resistance Grade” value is recorded as “Highly resistant”, the score was determined as 0, the “Grade 0” value was determined as 20 and the “Grade 1” value came to 0. For the setting “topramezone 25 g ai/ha (1x)”, the “Grade 2” value stood at 0 and the “Grade 3” value stood at 0. Moreover, for the setting “topramezone 50 g ai/ha (2x)”, the “Resistance Grade” value is on record as “Highly resistant”, the score is recorded as 3, the “Grade 0” value is recorded as 18 and the “Grade 1” value stood at 2. For the same molecule, where the note is “topramezone 50 g ai/ha (2x)”, the “Grade 2” value is recorded as 0 and the “Grade 3” value stood at 0. In addition, under “topramezone 100 g ai/ha (4x)”, the “Resistance Grade” value is “Moderately resistant”, the score stood at 27, the “Grade 0” value was 8 and the “Grade 1” value was determined as 8. For the same molecule, where the note is “topramezone 100 g ai/ha (4x)”, the “Grade 2” value was determined as 4 and the “Grade 3” value amounted to 0.
